These results are taken from publication doi:10.1101/430827 (bioRxiv, 2018).

The target of data set [1] is M2345/WT IRSp53 heterodimer (UniProt Q9UQB8). In words: co-IP.
Data set [2] deals with WT/M2345 IRSp53 heterodimer (UniProt Q9UQB8). The data set can be described thus: co-IP.
Data set [3] deals with 2xFLAG-Eps8 (human, UniProt Q12929 1-822). In words: other fluorescence titration.
The target of data set [4] is FLAG-Eps8/pIRSp53 complex (human | , UniProt Q12929 1-822; Q9UQB8-4 1-521, phosphorylated (pIRSp53, as m4)). The data set can be described thus: pull-down.
FLAG-Eps8/pIRSp53 complex, sequence (Q12929 whole entry, one chain of several): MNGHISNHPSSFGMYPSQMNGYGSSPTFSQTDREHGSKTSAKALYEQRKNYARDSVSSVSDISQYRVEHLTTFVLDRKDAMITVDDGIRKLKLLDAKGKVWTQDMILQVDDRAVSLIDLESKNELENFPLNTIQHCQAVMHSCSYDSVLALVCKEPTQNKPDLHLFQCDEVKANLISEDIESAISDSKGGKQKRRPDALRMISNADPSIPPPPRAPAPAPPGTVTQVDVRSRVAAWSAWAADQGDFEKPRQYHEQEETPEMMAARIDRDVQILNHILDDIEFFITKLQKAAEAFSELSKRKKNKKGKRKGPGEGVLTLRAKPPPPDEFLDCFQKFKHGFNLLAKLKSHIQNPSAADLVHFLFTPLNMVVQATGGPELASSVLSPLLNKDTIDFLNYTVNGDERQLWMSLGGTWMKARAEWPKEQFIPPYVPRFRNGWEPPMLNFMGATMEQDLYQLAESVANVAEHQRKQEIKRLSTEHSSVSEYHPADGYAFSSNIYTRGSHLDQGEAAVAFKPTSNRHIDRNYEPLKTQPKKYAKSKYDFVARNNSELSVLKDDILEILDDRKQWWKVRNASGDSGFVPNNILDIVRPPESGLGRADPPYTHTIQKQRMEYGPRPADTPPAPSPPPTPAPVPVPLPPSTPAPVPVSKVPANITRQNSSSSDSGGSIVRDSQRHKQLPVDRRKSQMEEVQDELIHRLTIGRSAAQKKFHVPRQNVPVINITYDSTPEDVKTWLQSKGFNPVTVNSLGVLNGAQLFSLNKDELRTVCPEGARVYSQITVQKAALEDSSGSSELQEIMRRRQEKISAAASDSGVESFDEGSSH
Data set [5] deals with the molecule itself. In words: crystal structure.

2xFLAG-Eps8, sequence (Q12929 whole entry): as the sequence (Q12929 whole entry, one chain of several) above

With “endogenous 14-3-3 (all isoforms included) (from UniProt P27348 1-245) (natural protein)”, the percent of the amount that coimmunoprecipitates with WT/WT IRSp53 in data set [1] and in data set [2] was 50% in each case.

B1: pIRSp53FS (natural protein, UniProt Q9UQB8-4 1-521, looked up)
chain: MSLSRSEEMHRLTENVYKTIMEQFNPSLRNFIAMGKNYEKALAGVTYAAKGYFDALVKMGELASESQGSKELGDVLFQMAEVHRQIQNQLEEMLKSFHNELLTQLEQKVELDSRYLSAALKKYQTEQRSKGDALDKCQAELKKLRKKSQGSKNPQKYSDKELQYIDAISNKQGELENYVSDGYKTALTEERRRFCFLVEKQCAVAKNSAAYHSKGKELLAQKLPLWQQACADPSKIPERAVQLMQQVASNGATLPSALSASKSNLVISDPIPGAKPLPVPPELAPFVGRMSAQESTPIMNGVTGPDGEDYSPWADRKAAQPKSLSPPQSQSKLSDSYSNTLPVRKSVTPKNSYATTENKTLPRSSSMAAGLERNGRMRVKAIFSHAAGDNSTLLSFKEGDLITLLVPEARDGWHYGESEKTKMRGWFPFSYTRVLDSDGSDRLHMSLQQGKSSSTGNLLDKDDLAIPPPDYGAASRAFPAQTASGFKQRPYSVAVPAFSQGLDDYGARSMSSGSGTLVCTV
modifications: natively phosphorylated in HEK293T cells; C230 and C519 labeled with the donor/acceptor pair fluorescein maleimide/rhodamine maleimide
In turn, B1 gave a Kd in data set [3] of 42 nM.

B2: 14-3-3θ (natural protein, human)
chain: MEKTELIQKAKLAEQAERYDDMATCMKAVTEQGAELSNEERNLLSVAYKNVVGGRRSAWRVISSIEQKTDTSDKKLQLIKDYREKVESELRSICTTVLELLDKYLIANATNPESKVFYLKMKGDYFRYLAEVACGDDRKQTIDNSQGAYQEAFDISKKEMQPTHPIRLGLALNFSVFYYEILNNPELACTLAKTAFDEAIAELDTLNEDSYKDSTLIMQLLRDNLTLWTSDSAGEECDAAEGAEN
Take B2: the binding result in data set [4] and in data set [5] was “binds” in each case.
